Publication PMC6431256 (Biochemistry, 2018)
One block for each binder: values may come before it. Non-standard residues stand in square brackets, D forms with d. No end group written: not given here. pT = C[C@@H](OP(=O)(O)O)[C@H](N)C(=O)O; pS = N[C@@H](COP(=O)(O)O)C(=O)O

What was measured:
full-length Pin1 = full-length Pin1 (human, UniProt Q13526 1-163); assay: NMR titration
[1] = target: Pin1 WW domain (Pin1WW, residues 1–41) (human, UniProt Q13526 1-41); assay: NMR titration
Pin1 WW domain (Pin1WW, residues 1–41), sequence (Q13526 1-41): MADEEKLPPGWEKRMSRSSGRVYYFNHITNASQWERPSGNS

full-length Pin1, sequence (Q13526 whole entry, the tested form may be a part): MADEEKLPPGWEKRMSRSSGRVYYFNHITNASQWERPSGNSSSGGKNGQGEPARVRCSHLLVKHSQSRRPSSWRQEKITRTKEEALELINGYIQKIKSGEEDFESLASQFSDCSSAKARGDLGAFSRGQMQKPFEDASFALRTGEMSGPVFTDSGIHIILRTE

Kd (full-length Pin1): 500 µM
Kd [1]: 890 µM
B1: histone H1.1 phosphopeptide KKAVKpSPAKAKAW (peptide)
peptide: KKAVK[pS]PAKAKAW

Kd (full-length Pin1): 180 µM
Kd [1]: 111 µM
B2: histone H1.4 phosphopeptide KATGAApTPKKSAKW (peptide)
peptide: KATGAA[pT]PKKSAKW
